Experimental data reported in the supplement of paper PMC10126150.
± gives the standard deviation of the averaged measurements.

System: ATP
Test: switch fluorescence ratio, 500 uM ATP over buffer (Cy3 cluster intensity, sum of 5 cycles each) (fold (ratio)); higher = stronger signal-on switching upon ATP binding; sequences stand for … in TCGTCGGCAGCGTCAGATGTGTATAAGAGACAGTTTTTTTTTTTTTTTTTTTTTTTTT…TC
Settings: aptamer strand: ATP DNA aptamer (quencher-CACCTGGGGGAGTATTGCGGAGGAAGG + anchor), 100 nM annealed; ATP concentration: 500 uM
How it was run: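 Values give the fluorescence ratio for each switch-domain sequence, averaged from per-cluster ratios of summed target-cycle to summed buffer-cycle Cy3 intensity. The Cy3-labelled switching-strand clusters sat on a modified Illumina MiSeq flow-cell, were annealed to 100 nM quencher-labelled ATP aptamer, and were imaged in selection buffer, then after 15 min with 500 uM ATP at 22 °C. Five cycles ran with NaOH stripping and re-annealing between them, and clusters outside 100-1000 RFU were excluded.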
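Also: ATP exposure 15 min at 22 °C before imaging.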

Point of comparison: GTGAGTCTGT, switch fluorescence ratio 0.9891 ± 0.001. Against it:
- AATGGTTCGC — higher, 1.009 ± 0.0069
- GGGGTAGGTT — within error, 1.02 ± 0.053
- GATTTTAATA — higher, 1.02 ± 0.016
- GGGTTGTAAG — within error, 0.986 ± 0.013
- ATGGATAAGA — within error, 1 ± 0.014
- AGTCAGGTT — higher, 1.02 ± 0.019
- ATTCACGGGC — higher, 1.08 ± 0.035
- ATGTAGGTTA — within error, 0.987 ± 0.018
- GGAGGTTGGC — within error, 1.02 ± 0.07
- CTCAGAAACG — higher, 1.03 ± 0.04
- TGGGAAGGTT — within error, 1.02 ± 0.041
- GGTTGTGATA — within error, 0.999 ± 0.044
- CAGGAACTGT — within error, 0.985 ± 0.018
- CGCCAGCATA — higher, 2.82 ± 0.31
- TGTTGATCCT — higher, 1.03 ± 0.027
- CTCAGGTGTT — within error, 1.73 ± 1
- GTTGTGGTTA — higher, 1.02 ± 0.015
- TTAGGAAAGT — within error, 0.9873 ± 0.0075
- TTGACCGCTG — higher, 1.16 ± 0.03
- TTTGTTGTAC — higher, 1.06 ± 0.058
- TTGCTTAAAC — higher, 1.02 ± 0.025
- TTAAGGGACC — higher, 1.022 ± 0.0089
- AGTGCGGTGG — within error, 1 ± 0.059
- CATGTGGACG — higher, 1.1 ± 0.02
- TTGGGAGGCG — within error, 0.97 ± 0.039
- TTTGGTCGTG — higher, 1.042 ± 0.0036
- ACATCTCGTT — within error, 0.96 ± 0.041
- TGAGTCTAG — within error, 0.997 ± 0.038
- GCCCGGGAGC — within error, 1 ± 0.037
- GGGTATCCGT — within error, 0.979 ± 0.032
- TGACTTGGGT — within error, 0.991 ± 0.01
- ATAACGGGAT — within error, 1.26 ± 0.42
- TTTAACGCAT — higher, 1.24 ± 0.12
- ACTAGACTAG — within error, 0.984 ± 0.044
- TTACACAGGT — higher, 1.12 ± 0.067
- ACGTTGGGGC — higher, 1.04 ± 0.027
- CCCGAGTATG — higher, 1.034 ± 0.0099
- CTCACGACGT — higher, 1.07 ± 0.019
- CCGTTGACCT — higher, 1.073 ± 0.01
- ATGGGGGTTA — within error, 0.987 ± 0.04
- GTTAAAAAGA — within error, 1.08 ± 0.22
- CGTTATCGTC — within error, 0.99 ± 0.0099
- GGGGTAAGAA — within error, 0.981 ± 0.034
- TCATTAAGGT — within error, 0.995 ± 0.03
- GCCCCCCACA — higher, 1.1 ± 0.048
- AAAGATTGTT — lower, 0.954 ± 0.011
- AGATTGGGGC — lower, 0.974 ± 0.013
- ATAGGACATC — higher, 1.03 ± 0.04
- GGCGGGGGCC — lower, 0.969 ± 0.016
- ATTTGGCGT — higher, 1.01 ± 0.018
- GGCCTATAAC — within error, 1 ± 0.021
- ACCATCAAAT — within error, 0.9853 ± 0.0068
- GGGGAAACAT — higher, 1.08 ± 0.013
- TAATGTTTTT — within error, 0.985 ± 0.039
- AAATTTAAAT — higher, 1.02 ± 0.024
- TTTTCGATTG — within error, 1.01 ± 0.041
- GGGGGAATGC — within error, 1.07 ± 0.11
- GCGTGGGTTG — within error, 0.998 ± 0.048
- CGGGTTCTTT — within error, 1.03 ± 0.11
- TCGATGGACT — higher, 1.03 ± 0.014
- TTGGATACCT — within error, 1.05 ± 0.13
- CCGTGGGACC — higher, 1.11 ± 0.016
- TCGGTCGATT — higher, 1.019 ± 0.0031
- TTTCGTTGCT — within error, 0.994 ± 0.018
- AACTGGGACT — within error, 1.02 ± 0.041
- CGGTTGGGTT — higher, 0.99659 ± 6.3e-05
- ATGGTTTCTT — within error, 1 ± 0.034
- GCTGATACTT — higher, 1.07 ± 0.02
- TTTAAACCTT — within error, 1.89 ± 1.2
- CGGGTAGTTG — within error, 0.995 ± 0.014
- AGGTTCAGCA — within error, 1 ± 0.013
- GGGGGTGGCG — within error, 0.973 ± 0.021
- AGCCGTTTTT — within error, 0.973 ± 0.038
- GATGATGTTT — within error, 0.973 ± 0.039
- TAGCATCTGG — within error, 0.98 ± 0.039
- TTTGCCCCTG — higher, 1.03 ± 0.021
- TGGGGAATTC — within error, 1.53 ± 0.86
- TGGGGTTTTT — within error, 0.984 ± 0.026
- ATGCGAGTAT — higher, 1.023 ± 0.0018
- TCCAGAAAGG — higher, 1.014 ± 0.0031
- AGGGGTCGCG — lower, 0.981 ± 0.0054
- TCTTAATGTA — within error, 0.985 ± 0.015
- GTGGCTTGTG — within error, 1 ± 0.029
- GTTTGGATGC — within error, 0.963 ± 0.03
- GGGTTTAGTA — within error, 0.998 ± 0.02
- ACAACGGGGG — higher, 1.05 ± 0.025
- TTTTAGCAGA — higher, 1.06 ± 0.016
- GTGGCTGCGT — lower, 0.9776 ± 0.0063
- TGTGCTGGTG — higher, 1.039 ± 0.0068
- TCGGCTTGTT — higher, 1.02 ± 0.02
- CTGCTGCAGG — within error, 1.03 ± 0.044
- GGTTAAGGTG — higher, 1.28 ± 0.071
- AAAGATAGGG — higher, 1.01 ± 0.018
- AAGGCTCTTG — within error, 0.986 ± 0.018
- TCAGACAGTT — within error, 0.987 ± 0.0042
- ATATGATGTA — lower, 0.966 ± 0.014
- TATTTCTGTG — within error, 1.02 ± 0.034
- GGGCTAAAGA — higher, 1.01 ± 0.013
- GGGGCAGACT — higher, 1.03 ± 0.018
- CCTTCAGCGT — higher, 1.73 ± 0.086
- TTAAAGGGGG — within error, 1.02 ± 0.086
- GAGATTTAGT — within error, 0.973 ± 0.049
- TAAAAATTTG — within error, 1.07 ± 0.082
- AAGGGCTGGT — within error, 0.99 ± 0.022
- GGGGCGTCTG — within error, 1.04 ± 0.06
- TAATCGTC — within error, 0.968 ± 0.023
- AGTCTACTAT — higher, 1 ± 0.0088
- TAGAAGGGAT — within error, 0.987 ± 0.016
- CCAACGGTGC — higher, 2.24 ± 0.095
- AGAAAATTAG — within error, 1.02 ± 0.039
- CACTTGACGT — higher, 1.21 ± 0.034
- GAGAAGGGAT — within error, 0.999 ± 0.022
- GGCTGCGCGG — within error, 1 ± 0.032
- GCTTGGTGCT — higher, 1.05 ± 0.031
- TGATTTCATT — within error, 1.02 ± 0.048
- AGGTGGGGTT — within error, 0.996 ± 0.051
- CCTTCTTTTT — within error, 1.06 ± 0.12
- TTTTATTAAT — within error, 0.978 ± 0.04
- AATAGTATCT — within error, 1.01 ± 0.029
- TTTGTGTAGC — within error, 1 ± 0.038
- GGGAGCCACG — within error, 1.02 ± 0.036
- CGGCCATTCG — within error, 0.982 ± 0.021
- TTAGTGGGAG — within error, 0.966 ± 0.033
- CCGGTTTGGC — higher, 1.062 ± 0.006
- CGCACGATGC — higher, 2.89 ± 0.32
- AGTTGAGTTT — within error, 0.992 ± 0.026
- AAGAGACGGG — higher, 1.009 ± 0.0018
- GGGTTTGTCA — higher, 1.02 ± 0.029
- CTGTTGTGGG — the same, 0.989 ± 0.039
- TTTCGACGTC — within error, 0.997 ± 0.12
- GAGATGTGGT — within error, 0.985 ± 0.031
- CTCCTCGTGC — higher, 3.49 ± 0.47
- AGTTAGTGAA — within error, 0.99 ± 0.022
- CAATTTCCCG — higher, 1.01 ± 0.02
- TTTGAGCTCT — lower, 0.97 ± 0.014
- GCATGGGTAC — higher, 1.05 ± 0.018
- CGGGGGCAGT — higher, 1.006 ± 0.0067
- GATCATTTGT — lower, 0.9797 ± 0.0018
- GATGGAGGGA — within error, 1.01 ± 0.028
- GTGGGGAGAG — lower, 0.9602 ± 0.0078
- AGGTTGCTCT — within error, 0.9947 ± 0.0098
- CTGGGGTCGG — within error, 1 ± 0.052
- GATGTTTTGG — within error, 0.986 ± 0.033
- TTGGCTAATT — within error, 1 ± 0.034
- GAAATTCCGA — within error, 1.85 ± 1.1
- TAAAAAGGAT — higher, 1.01 ± 0.02
- GAGGCCGATT — higher, 1.02 ± 0.011
- TTTATTCGCG — higher, 1.03 ± 0.029
- CCTGGGAAGG — within error, 0.991 ± 0.025
- TATCATGGTG — higher, 1.05 ± 0.058
- GAACGAAGTT — within error, 1 ± 0.018
- TAAACGAGGG — higher, 1.01 ± 0.014
- AGACGTAGTA — higher, 1.03 ± 0.014
- GTTGTCTAAT — higher, 0.9991 ± 0.0073
- GTGGGGGGGA — within error, 1.01 ± 0.023
- TTTAAGGGTA — within error, 0.994 ± 0.023
- TATTGAGAAG — within error, 0.987 ± 0.025
- AGTTATGGGG — within error, 1 ± 0.032
- TTAAGAGGTA — higher, 1.002 ± 0.0039
- TGGGCAGATG — the same, 0.989 ± 0.016
- GATACCGGGT — within error, 1.01 ± 0.022
- TGGGCAAAAA — higher, 1.01 ± 0.011
- CAAATAGTGG — lower, 0.943 ± 0.034
- GGATGTTATT — within error, 0.9915 ± 0.0094
- AGAGGCGGGA — within error, 0.956 ± 0.11
- TGTATCTCTG — higher, 1.02 ± 0.02
- AGAGAAGATG — within error, 1.01 ± 0.034
- TGTAAGGGCG — higher, 1.02 ± 0.016
- GTGGGATTT — within error, 0.995 ± 0.022
- GGGAAATCGG — within error, 0.986 ± 0.014
- CATGTTGAGC — within error, 0.9959 ± 0.0081
- CCGTGAGGGT — within error, 1.02 ± 0.038
- TGGTTGGTGC — within error, 1.16 ± 0.17
- GAGGGTTGGC — within error, 0.95 ± 0.084
- GGAGTGTTTC — higher, 1.01 ± 0.016
- TGAAAAAAGA — within error, 0.988 ± 0.019
- AGGGTGGGCT — within error, 0.996 ± 0.012
- CAAGGCATGG — higher, 1.05 ± 0.033
- CGCCCCGTCA — within error, 0.954 ± 0.036
- TTGCGCCCCC — higher, 1.104 ± 0.011
- TGGTGATGGG — within error, 0.9922 ± 0.0093
- TTGCTCCCAC — within error, 1.62 ± 0.81
- AAATTACTAG — within error, 1.01 ± 0.048
- GTTTGGCCGT — within error, 0.97 ± 0.035
- GCGGATCAGC — within error, 1.01 ± 0.059
- CGGGGAAGGA — higher, 1.016 ± 0.006
- GCGGTAGTTC — higher, 1.02 ± 0.023
- TATTTTTGTG — within error, 0.985 ± 0.011
- TAAGGGTGCC — within error, 1.01 ± 0.03
- TGCCCTTTTT — within error, 1.01 ± 0.095
- CGTTGCATTG — higher, 1.03 ± 0.017
- ATTGTTGGAT — higher, 1.013 ± 0.0067
- CATGTGAAGG — within error, 0.966 ± 0.037
- TTTTGGTCCA — within error, 0.981 ± 0.015
- CACTAGTAGA — higher, 1.03 ± 0.028
- ATCATACACT — higher, 1.06 ± 0.018
- TAAGGTAAAA — higher, 1.001 ± 0.0041
- TTCGATATGT — within error, 0.984 ± 0.022
- TTTACCTAGA — within error, 0.997 ± 0.025
